From patent US20180140578A1, “METHODS AND COMPOSITIONS FOR THE DIAGNOSIS AND SELECTIVE TREATMENT OF CANCER” (Board of Regents of the University of Texas System, priority 2016, published 2018)

Assays:
[1] = target: RBM39-3xFLAG (human) (UniProt Q14498); assay: anti-FLAG IP of RBM39-3xFLAG from H1155 cells treated with 10 µM indisulam, LC-MS/MS
[2] = target: RBM39-3xFLAG (human) (UniProt Q14498); assay: anti-FLAG IP of RBM39-3xFLAG from H1155 cells treated with DMSO (no indisulam), LC-MS/MS
[3] = target: DCAF15-3xFLAG (human) (UniProt Q66K64); assay: pull-down of 100 nM RBM39Δ150 by DCAF15-3xFLAG on anti-FLAG beads with rising indisulam, western blot (FIG. 4C)
Sequence of DCAF15-3xFLAG (human) (Q66K64 whole entry): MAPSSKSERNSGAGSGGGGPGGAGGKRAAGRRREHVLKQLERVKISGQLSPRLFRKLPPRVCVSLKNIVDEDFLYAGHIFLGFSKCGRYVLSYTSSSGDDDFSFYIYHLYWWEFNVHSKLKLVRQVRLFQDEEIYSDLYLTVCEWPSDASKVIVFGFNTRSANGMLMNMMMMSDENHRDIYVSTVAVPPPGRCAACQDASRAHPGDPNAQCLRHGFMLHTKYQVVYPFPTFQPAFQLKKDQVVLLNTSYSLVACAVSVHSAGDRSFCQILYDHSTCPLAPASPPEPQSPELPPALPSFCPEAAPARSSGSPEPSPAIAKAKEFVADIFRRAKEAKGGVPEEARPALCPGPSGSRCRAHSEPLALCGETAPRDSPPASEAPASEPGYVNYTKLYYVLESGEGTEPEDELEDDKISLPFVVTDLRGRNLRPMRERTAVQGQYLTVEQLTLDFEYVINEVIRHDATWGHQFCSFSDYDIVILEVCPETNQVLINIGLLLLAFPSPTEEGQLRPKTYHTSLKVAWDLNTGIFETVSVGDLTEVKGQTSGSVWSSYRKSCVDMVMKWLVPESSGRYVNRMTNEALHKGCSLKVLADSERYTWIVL

Sequence of RBM39-3xFLAG (human) (Q14498 whole entry): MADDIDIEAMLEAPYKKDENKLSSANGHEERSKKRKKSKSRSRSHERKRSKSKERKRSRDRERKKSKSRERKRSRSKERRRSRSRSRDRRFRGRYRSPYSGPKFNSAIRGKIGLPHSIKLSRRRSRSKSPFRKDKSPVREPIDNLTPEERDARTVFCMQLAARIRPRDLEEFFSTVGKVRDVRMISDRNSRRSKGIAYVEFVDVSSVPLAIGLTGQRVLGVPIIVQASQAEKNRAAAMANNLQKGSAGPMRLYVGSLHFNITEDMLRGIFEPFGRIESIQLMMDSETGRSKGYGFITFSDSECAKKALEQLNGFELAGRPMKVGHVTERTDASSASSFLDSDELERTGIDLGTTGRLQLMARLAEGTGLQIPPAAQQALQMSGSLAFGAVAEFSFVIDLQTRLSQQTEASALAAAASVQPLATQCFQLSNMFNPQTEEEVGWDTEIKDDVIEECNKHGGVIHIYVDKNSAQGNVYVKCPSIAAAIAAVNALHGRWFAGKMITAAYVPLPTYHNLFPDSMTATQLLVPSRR

Substance	indisulam total (peptide count) [1]	indisulam unique (peptide count) [1]	DMSO total (peptide count) [2]	DMSO unique (peptide count) [2]	indisulam concentration at which the complex was apparent [3]
ANXA2 (from UniProt P07355 2-339)	11 peptides	10 peptides	1 peptides	1 peptides	–
DDA1 (from UniProt Q9BW61 2-102)	4 peptides	4 peptides	0 peptides	0 peptides	–
DDX46 (from UniProt Q7L014 2-1031)	6 peptides	6 peptides	0 peptides	0 peptides	–
HDX (from UniProt Q7Z353 1-690)	15 peptides	14 peptides	0 peptides	0 peptides	–
PDIA3 (from UniProt P30101 25-505)	4 peptides	4 peptides	0 peptides	0 peptides	–
PSMC5 (from UniProt P62195 2-406)	6 peptides	6 peptides	0 peptides	0 peptides	–
PSMD11 (from UniProt O00231 2-422)	5 peptides	5 peptides	0 peptides	0 peptides	–
TPM3 (from UniProt P06753 2-285)	4 peptides	4 peptides	0 peptides	0 peptides	–
YWHAB (from UniProt P31946 1-246)	5 peptides	4 peptides	0 peptides	0 peptides	–

The remaining lines, values ahead:

indisulam total (peptide count) [1]	indisulam unique (peptide count) [1]	DMSO total (peptide count) [2]	DMSO unique (peptide count) [2]	indisulam concentration at which the complex was apparent [3]	Substance
11 peptides	11 peptides	1 peptides	1 peptides	–	CUL4A (from UniProt Q13619 1-759)
16 peptides	15 peptides	0 peptides	0 peptides	–	CUL4B (from UniProt Q13620 1-913)
52 peptides	46 peptides	5 peptides	4 peptides	–	DDB1 (from UniProt Q16531 2-1140)
4 peptides	4 peptides	0 peptides	0 peptides	–	DKFZp686J1372 (from UniProt Q5HYB6 1-232)
6 peptides	6 peptides	0 peptides	0 peptides	–	FUS (from UniProt P35637 1-526)
5 peptides	5 peptides	0 peptides	0 peptides	–	PPM1B (from UniProt O75688 2-479)
–	–	–	–	0.1 µM	RBM39Δ150 (from UniProt Q14498 151-530)
4 peptides	4 peptides	0 peptides	0 peptides	–	TPI1 (from UniProt P60174 2-249)
